Experimental data published in the supplement of paper PMC10567573.

B1: KRT71 (parent)
chain: FGSRSLYSLGGVRSLNVASGSGKS

Variants of: B1
Assay: protein stability index of a GFP-peptide fusion (GPS, HEK-293T) (PSI 1-6); higher = more stable
Details: c terminus: a fixed tail appended
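Note: lentivirally expressed fusions sorted by FACS into six bins by GFP to DsRed ratio, PSI derived from sequencing read proportions per bin multiplied by bin number.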

Protein stability index, by site and new letter:
L9: F 1.88; N 2.51; M 1.83; S 2.18; A 2.5; V 2.62; G 2.66; P 2.6; C 2.12; K 2.27; I 1.75; Y 1.77; H 2.75; D 2.56; E 2.59; Q 2.79; T 2.64; W 1.87; R 2.56
S8: N 2.4; E 2.75; F 1.21; H 2.89; M 1.38; L 2.2; K 2.14; G 2; D 3.44; P 1.72; Q 1.72; V 2.23; I 1.54; T 1.89; W 2.62; R 1.69; C 2.1; Y 1.2; A 2.17
V17: N 1.83; S 1.92; C 2.31; K 2.01; L 2.5; E 1.59; P 1.92; G 1.91; Y 2.07; M 2.38; Q 1.97; R 1.7; T 2.52; D 2.13; I 1.94; F 2.17; H 1.97; W 1.86; A 1.91
R13: K 1.34; Y 1.7; G 1.45; T 1.28; L 2.27; Q 1.43; D 2.06; S 2.48; N 1.87; W 1.67; I 1.93; A 3.09; C 2.29; E 1.86; H 1.81; M 1.26; P 1.81; V 1.74; F 1.72
S19: G 1.67; E 1.98; C 1.47; R 1.92; L 1.47; V 2.54; K 2.23; T 2.06; I 1.44; D 1.89; H 1.53; W 2.85; Q 2.03; Y 1.89; P 1.8; M 1.88; N 2.38; A 1.8; F 1.47
L6: G 1.77; M 1.93; E 3.14; F 3.13; Q 2.62; V 1.62; S 2.13; H 2.33; K 2.91; Y 1.48; R 2.65; I 2.29; N 2.76; T 3.13; W 2.94; P 1.74
Y7: S 3.89; E 4.17; V 2.83; P 3.75; H 2.98; G 2.81; K 3.02; F 3.01; I 2.32; Q 3.91; R 3.57; N 3.26; L 1.6; W 2.05; T 2.55; D 3.53; M 2.54; C 2.48; A 3.46
S21: A 1.83; N 1.69; R 2.5; E 1.92; K 2.06; F 1.73; P 2.07; L 2.11; Q 2.29; D 2.04; W 1.24; M 1.87; I 2.18; H 2.11; T 1.93; G 1.91; C 1.49; V 1.41
V12: F 1.66; Q 2.11; S 2.45; C 1.55; N 2.28; L 2.21; P 2.2; D 2.05; A 1.81; H 1.68; Y 1.65; K 2; M 1.68; I 2.12; T 2.27; R 2.37; G 2.13; W 1.71; E 2.3
G20: Y 1.87; R 1.97; A 1.96; W 1.82; P 2; V 1.92; M 1.49; F 2.04; E 1.49; S 1.87; Q 1.87; H 1.67; C 1.54; N 1.82; K 1.5; I 1.72; L 1.55; T 2.16; D 2.18
G11: P 1.8; K 1.64; C 2.87; M 2.71; Y 3.77; T 2.4; D 2.25; S 2.11; W 2.62; E 2.92; H 2.33; N 2.24; L 2.9; R 2.46; Q 3.2; I 5.35; V 4.85
N16: Y 2.16; E 1.73; K 2.02; Q 2.44; F 2.22; H 2.21; P 2.04; W 2.95; L 1.73; D 2.38; R 2.07; T 1.47; C 1.97; V 2.06; M 1.83; G 1.1; A 1.93; I 1.29; S 2.15
K23: L 1.74; R 2.35; T 1.56; N 2.09; Q 1.77; P 2.15; M 1.49; S 1.9; I 2.12; V 1.88; E 2.03; A 1.47; F 2.47; C 1.97; G 2.09; H 2.03; D 1.92
G22: M 1.93; A 1.53; V 1.33; T 1.45; I 1.57; H 2.75; Q 2.09; N 2.27; Y 2.44; L 1.64; W 2.36; S 1.93; R 2.48; P 1.89; F 1.49; D 2.15; K 1.73; C 1.69; E 2.83
G10: F 1.5; T 2.05; K 1.9; V 1.58; H 2.56; N 2.16; M 2.09; Y 1.94; L 2.6; A 1.66; D 2.51; P 2.03; R 1.6; I 3.84; C 3.19; S 1.83; Q 2.08; E 2.31; W 2.79
A18: T 1.62; F 1.9; D 1.62; E 2.11; H 2.39; M 2.95; Q 1.78; W 2.87; I 1.39; V 1.88; L 2.27; G 2.1; P 2.2; C 1.73; N 2.81; Y 2.94; K 2.63; S 2.65; R 2.46
S14: V 1.03; G 2.04; N 2.38; W 1.44; D 1.92; T 1.74; M 1.65; C 1.58; R 1.5; Y 2.36; H 2; I 1.38; A 1.59; K 1.81; L 2.04; F 1.89; Q 1.86; E 2.66; P 1.71
L15: K 1.99; R 2.28; D 1.61; T 1.92; N 2.33; F 1.77; S 1.92; P 2.02; Y 2.62; W 1.34; Q 2.51; C 2.35; M 2.18; G 1.88; A 2.35; I 1.7; V 2.07; H 1.37; E 2.15
